{"source": "paper PMC2819930", "assay_in_all_cases": "pull-down", "key": {"[1]": {"target": "GST-NR1-1a (GST fused to the cytoplasmic tail of NR1-1a) (UniProt P35439)"}, "[2]": {"target": "PKC-phosphorylated GST-NR1-1a"}, "[3]": {"target": "PKA phosphorylated GST-NR1-1a"}}, "note": "Several values for one entry are separate records, joined by “and”; a condition that tells them apart may be missing. Equal entries are not always repeated.", "data": [{"substance": "importin α (endogenous, rat brain) (from UniProt P83953 1-538) (natural protein)", "values": [{"measurement": "importin α pulled down (immunoblot signal, a.u.)", "setting": "[1]", "value": "0.94 a.u. and 1.43 a.u."}, {"measurement": "importin α pulled down (immunoblot signal, a.u.)", "setting": "[2]", "value": 0.378, "unit": "a.u."}, {"measurement": "importin α pulled down (immunoblot signal, a.u.)", "setting": "[3]", "value": 1.33, "unit": "a.u."}]}]}
